Measurements reported in the supplement of paper PMC9170038.

Test system: MS2 coat protein
Test: apparent KD of MS2 coat protein; designed switch direction (-1 OFF switch, 1 ON switch): -1; higher = weaker reporter binding
In short: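 SNAP-549-labelled MS2 coat protein was titrated, doubling from 0.7 or 1.5 nM to 3 µM, over designed RNA switches transcribed on Illumina chips by stalled E. coli RNA polymerase. Runs were done without input, with 200 uM small-molecule ligand, or with an oligonucleotide input. Apparent KD is the per-design median over clusters of curve-fitted normalised fluorescence.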

[1] = Eterna round: R95, input ligand: microRNA oligo, concentration not stated
[2] = input ligand: microRNA oligo, concentration not stated
[3] = Eterna round: R95, input ligand: FMN 200 uM
[4] = Eterna round: R95, input ligand: none

Sequence	apparent KD of MS2 coat protein [1] [nM]	apparent KD of MS2 coat protein (input ligand: FMN 200 uM) [nM]	apparent KD of MS2 coat protein (input ligand: none) [nM]	apparent KD of MS2 coat protein [2] [nM]	apparent KD of MS2 coat protein [3] [nM]	apparent KD of MS2 coat protein [4] [nM]
CUUUUUUGAGGAUAUUAGUAGUAAAUAAAUAAAAUUACUACUGAGAAGGCACAUGAGGAUCACCCAUGUUCCUC [salish99_ex4_r3_046] (puzzle: Exclusion 4)	17.6					
GGAAGGCGAGGAUAUGCAAUAAUACACUAAUUAAUGUGAAAACAUGAGGAUCACCCAUGUAGAAGGCGCGAGAA [AK-MS2ROC-r4-exclusion2-5] (Eterna round: R97, puzzle: Exclusion 2)		21.2	20.7			
UGUUGUUACGUAGGAUAUGAGGAUCACCCAUAGAAGGAUAUCGAAAGAGAAGGUCUGAGGAUUACCCAGAAGGACGGGUUAACA [pwkr exNG2 2xF5 2xFMN.4] (Eterna round: R96, puzzle: Exclusion NG 2)		1340	139	131		
GUGUACGGAGGAUAUAUGUGGGCAGGCUGACCUGCAGCUUCACAUGAGGAUCACCCAUGUAGAAGGCUGUGCAC [JL-ex2-2.08 Brourd mod] (puzzle: Exclusion 2)	16.9					
GCGGACUAGUACGUGAGUACUGAGACAUGAGGAUCACCCAUGUAGGAUAUCGAUUCGAAACGAAUCGAGAAGGGCAUAGUCCGC [JL denovo 10] (Eterna round: R96, puzzle: Exclusion NG 3)		19.7	21.2	18.9		
AUACCACGAGGAUAUCGUCUAUUUUACAUGAGGAUCACCCAUGUUAUCUUUGUUUUGUUUCGAGAAGGCGUGUUUU [JR_E5_Sub079] (puzzle: Exclusion 5)	24.6					
UUCACGUCAGGAUAUCCAUAUUUCUGAUAUAACGGUACUUUGGAGAAGGGACAUGAGGAUCACCCAUGUCCUCU [LRO-Excl4-19-Nando 22 Mod] (Eterna round: R97, puzzle: Exclusion 4)		15.5	16.9			
CUGAGUUAAGGAUAUACAUGAGGAUCACCCAUGUAAAGUAGCUUGCGUACAGGCAGAUGUAGAAGGUAAUUCGG [Mod of JL 8 - Jieux - Exclusion 3] (Eterna round: R97, puzzle: Exclusion 3)		37.2				
UACAUGAGGAUCACCCAUGUUUUGUCGUGUAUGGUAUUUAUCUAGGAUAUCAAUUUAUUUAAUUAUGAGAAGGAGAAUAUUAAU [JMF's solution 21] (Eterna round: R96, puzzle: Exclusion NG 3)		36.3	34.7	27.7		
UGAUCUAGCGGAGGAUAUACAUGAGGAUCACCCAUGUAGAUAUCAUGACCGUAGUCGUGUAUCGUGUAGAAGGCCGCUAGAUCU [JL ENG2 3.69] (Eterna round: R96, puzzle: Exclusion NG 2)				12.7		
UACAAGCUUUUAAGAUCCCACAUGAGGAUCACCCAUGUGCUCGUCUUGUAACGUACUGUGACGAAAGUCACGGUACG [JL TOV1 3.23] (Eterna round: R97, puzzle: Sensor, turn-off variant 1)		26.7	27.5			
ACUAGCUUUUUGCAUAUUAGGUUUGUUGCUUCGUAUGUAACAUGAGGAUCACCCAUGUAUUACUGAUGUCGUCGUUU [JR_SV3TOV2_Sub091] (puzzle: Sensor v3, turn-off variant 2)	17.3				20	16.9
CAUACUCAAGUGAGGAUAUAGUCUCGGAUACGAAACUAGAAGGCACAUGAGGAUCACCCAUGUAGAGAGUAAAG [EX-4 Malc #29] (puzzle: Brourd's mod of Exclusion 4)	18.5				62.7	13.1
UGAGUGCUGCGAGGAUAUACAUGAGGAUCACCCAUGUUUAGGUGUGAGGCUUUGCCUCACACCAUGUAGAAGGCGCAGUACUCU [JL ENG2 1.07] (Eterna round: R96, puzzle: Exclusion NG 2)		16.8	12.8	8.96		
GGUCUACAUGAGGAUCACCCAUGUAAGGAUAUCGUCACUGGAGCUUCGGCUCCAGUGACGAGAAGGUGCAUAAU [E1/11-A1] (Eterna round: R97, puzzle: Exclusion 1)		35.4	27.2			
CAGUACUGAGGAUAUACAUGAGGAUCACCCAUGUGUUCCAGCUAGGAAACUAGCAAAAGUAGAAGGCAGUACUG [Ex3: 828] (Eterna round: R96, puzzle: Exclusion 3)		646	25.9	22.1		
GGUCAGCUAGGAUAUACAUGAGGAUCACCCAUGUACUGACCCAUGCGGUAGUCCGCAUGUAGAAGGAGCAAAAU [Cebiin] (Eterna round: R97, puzzle: Exclusion 3)		11.3	18.2			
UGAGUGCUGCGAGGAUAUACAUGAGGAUCACCCAUGUUUUCGUGUGAGGCUUUGCCUCACACGAAGUAGAAGGCGCAGUACUCU [JL ENG2 1.12] (Eterna round: R96, puzzle: Exclusion NG 2)		10.8	12.3	11.8		

Sequence	apparent KD of MS2 coat protein [1] [nM]	apparent KD of MS2 coat protein (input ligand: FMN 200 uM) [nM]	apparent KD of MS2 coat protein (input ligand: none) [nM]	apparent KD of MS2 coat protein [2] [nM]	apparent KD of MS2 coat protein [3] [nM]	apparent KD of MS2 coat protein [4] [nM]
UUUAAAACAUAGGAUAUCGAAAAUAUCAUUUAACGAGAAGGAUGAACAUGAGGAUCACCCAUGUGGUAUCAUGG [Mat - Exclusion 6 - JL Mod - D16] (puzzle: Exclusion 6)	580				320	313
CAAUGUACCUAGGAUAUAACCUACGACAUUGGGUUAGAAGGAGGAACAUGAGGAUCACCCAUGUGACUUCGCAA [Abiisbe] (puzzle: Exclusion 6)	9.5					
AAAUAACCUCUAGGAUAUGUGUACGUAUAGUGCGCAGAAGGAGACAUGAGGAUCACCCAUGUACACACACAACAAACGACCACC (Eterna round: R96, puzzle: Exclusion NG 1)		26.1	30.4	27.3		
CGUUCUCACGUCAGGAUAUAGGACUUGCACGUGUGCUAGAAGGGACAUGAGGAUCACCCAUGUAAAUAAGAAAG [Quonbi] (Eterna round: R97, puzzle: Brourd's mod of Exclusion 4)		37.5	27.1			
UAUUUAUAGCAAGGAUAUGAUUAUUAUUAUUUAUCAGAAGGUGCACAUGAGGAUCACCCAUGUUUUACAAUUUGUAAUUUAAUU [Default title] (Eterna round: R96, puzzle: Exclusion NG 1)				31.1		
AUCAUAACCUAGGAUAUGUAGCAGCCCGCAGCGACAGAAGGAGGUACAUGAGGAUCACCCAUGUCCACUCCCGU [EX6 C.11] (Eterna round: R97, puzzle: Exclusion 6)		12.4	11.8			
AGAUCACAUGAGGAUCACCCAUGUCAGGAUAUGAUACUAUGUACUUCGGUACAUAGUAUCAGAAGGGAUAUGAA [Ex1-3: 67] (puzzle: Exclusion 1)	109					
ACAAGCUUUUUCGUGGGUGACAUGAGGAUCACCCAUGUUUGCCACGUCUUGUGGGCCCGGGCCCGCGGCCCGGGCCC [-44.6, -64.9, A 13%] (Eterna round: R97, puzzle: Sensor, turn-off variant 1)		45.8	47.1			
UUGUAACAUGAGGAUCACCCAUGUGAGGAUAUGGUUAAGUAAUGUAAUGUAAAGUAAUCCAGAAGGCACAUGUU [1st #24] (Eterna round: R97, puzzle: Exclusion 1)		488	328			
UAACAUGUCUGAGGAUAUCUGCACGUGUAGUGCAGAGAAGGCAGAACAUGAGGAUCACCCAUGUAGAUCAUUAAUUAAUUAAUU [ENG1/7-B3] (Eterna round: R96, puzzle: Exclusion NG 1)		765	478	337		
AAGAAUCGCAAUACGAAUAAGCAAUACGAACAAUAGCAAACAUGAGGAUCACCCAUGUCAAGGGUGACAACGCUCUA [JR_Sensorv2_tov2_Sub107] (Eterna round: R96, puzzle: Sensor v2, turn-off variant 2)		173	862	61.2		
AAAUUGUGAGGAUAUCAGGUGUGCUAGCGUACUGGUACAUCUGAGAAGGCACAUGAGGAUCACCCAUGUUUCUU [Mat - Exclusion 4 - Mod of JL - D43] (puzzle: Exclusion 4)	15.2					
GAUAGAGAGCAGGAUAUCAUAGAAAUGUAUGAAUGAGAAGGGCUCACAUGAGGAUCACCCAUGUGGUCCUAGAU [JL Dibiri mod 19] (puzzle: Exclusion 6)	22.4				135	21.1
GUUUGACAUGAGGAUCACCCAUGUGAGGAUAUCGUCUGGUACGUGUUGGCUGGCAUCUCGAGAAGGCGCAUAGG [Exclusion 1 V57] (puzzle: Exclusion 1)	49.7				75.9	64.9
AUUAGCGUAGGAUAUUGAUACAUGUACAUGAGGAUCACCCAUGUGAGGUGAGUCUUGGAUUAAGAAGGGCGAAGAA [EX5 #37] (Eterna round: R97, puzzle: Exclusion 5)		1080	1270			
UUUUUAUCUGAAGGAUAUACUUAACAUGAGGAUCACCCAUGUGGUGUUGUGAGUGAGUGAGUUUAGUAGAAGGUCAAUUAUUUU [JMF's solution 19] (Eterna round: R96, puzzle: Exclusion NG 2)		1310	380	392		
GAAUAGGGAGGAUAUCCAAUAUAUGACAUGAGGAUCACCCAUGUUUCCACUCGUACCUCCGGAGAAGGCCCAUAAG [Ex5 #5] (Eterna round: R97, puzzle: Exclusion 5)		22.4	30.6			
